Source: US20210261685A1 (Alector, published 2021)
Residue numbers refer to the chain shown, from its start.

B1: MTK-29.15 (antibody, human IgG1, V domains shown)
VH: QVQLVQSGSELKKPGASVKVSCKASSYTFTTYGMSWVRQAPGQGLEWMGWINTMSGVPTYTDDFKGRFVFSLDTSVSTAYLQISSLKAEDTAVYYCARYTNYGVFDYWGQGTLVTVSS
VL: DIQLTQSPSFPSASVGDRVTITCRASSSVGYMHWYQQKPGKAPKLLIYATSNLAQGVPSRFSGSGSGTEFTLTISSLQPEDFATYYCQQWGSLPFTFGQGTKLEIK
B2: MTK-29.16 (antibody, human IgG1, V domains shown)
VH: B1 VH with S26G, T28I, T31S, M34L, I51V, M54Y
VL: B1 VL with P11L, S92R
B3: MTK-29.17 (antibody, human IgG1, V domains shown)
VH: B1 VH with S26G, T28I, T31S, M34L, M54Y, T61A, D62Q, D63G, K65T
VL: B1 VL with P11L, A25S
B4: MTK-29.10 (antibody, human IgG1, V domains shown)
VH: B1 VH with A24T, M54Y
VL: EIVLTQSPATLSLSPGERATLSCRASSSVGYMHWYQQKPGQAPRLLIYATSNLASGIPARFSGSGSGTDFTLTISRLEPEDFAVYYCQQWGSLPFTFGGGTKLEIK
B5: MTK-29.11 (antibody, human IgG1, V domains shown)
VH: B1 VH with M54D
VL: B4 VL
B6: MTK-29.18 (antibody, human IgG1, V domains shown)
VH: B1 VH with S26G, T28I, T31S, M34L, I51V, M54Y
VL: B4 VL with S28T
B7: MTK-33.13 (antibody, human IgG1, V domains shown)
VH: QVQLVQSGAEVKKPGASVKVSCKASGYTFTSYWMHWVRQAPGQGLEWIGVIDPSDNYINYNQKFQGRVTMTRDTSTSTVYMELSSLRSEDTAVYYCAREAGTRGYFDYWGQGTLVTVSS
VL: DIQMTQSPSSLSASVGDRVTITCQASRSVSNTVAWYQQKPGKAPKLLIYYASNRYTGVPSRFSGSGSGTDFTFTISSLQPEDIATYYCQQDYRSPFTFGQGTKLEIK
B8: MTK-33.5 (antibody, human IgG1, V domains shown)
VH: B7 VH with K23M, T30G
VL: B7 VL with R27Q, Y55E, A84G
B9: MTK-33.7 (antibody, human IgG1, V domains shown)
VH: B7 VH with Q62A
VL: B7 VL with Q24G, R27Q
B10: MTK-33.8 (antibody, human IgG1, V domains shown)
VH: B7 VH with G101W, D107N
VL: B7 VL with R27Q, N31R
B11: MTK-33.10 (antibody, V domains shown)
VH: B7 VH with G26S, T28S, Q65R
VL: B7 VL with S26G, R27Q
B12: MTK-33.11 (antibody, human IgG1, V domains shown)
VH: B7 VH with G101W
VL: B7 VL with S30R
B13: MTK-33.12 (antibody, V domains shown)
VH: B7 VH with T30V, Q65R
VL: B7 VL with R27Q, Q89R, Y92T, I106L

Key:
Experiment in all cases: SPR, Carterra LSA, antibody immobilised
[1] = target: T1, human MerTK extracellular domain (ECD), recombinant (human, UniProt Q12866 21-505)
T1 construct: also called huMerTK; not shown: polyHis tag or TEVS/Thrombin/murine IgG2a Fc tag
T1 sequence: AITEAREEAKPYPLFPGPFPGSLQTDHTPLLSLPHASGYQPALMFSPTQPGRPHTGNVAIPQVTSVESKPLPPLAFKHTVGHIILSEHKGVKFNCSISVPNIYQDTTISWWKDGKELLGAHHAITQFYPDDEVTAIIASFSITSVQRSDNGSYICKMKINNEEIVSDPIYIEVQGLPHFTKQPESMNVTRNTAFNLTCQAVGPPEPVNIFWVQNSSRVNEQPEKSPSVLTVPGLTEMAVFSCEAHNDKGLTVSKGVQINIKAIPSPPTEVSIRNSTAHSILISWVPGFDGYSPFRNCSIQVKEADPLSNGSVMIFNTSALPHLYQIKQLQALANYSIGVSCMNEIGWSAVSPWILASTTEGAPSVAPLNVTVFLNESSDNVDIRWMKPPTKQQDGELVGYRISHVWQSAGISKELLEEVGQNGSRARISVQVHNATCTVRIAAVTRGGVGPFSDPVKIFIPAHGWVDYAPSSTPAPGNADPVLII
Method: (§1) Binding kinetics of humanized and affinity-matured anti-MerTK antibodies of the present disclosure to human, murine, and cynomolgus MerTK proteins were evaluated as follows. Briefly, anti-MerTK antibodies were prepared by diluting to 10 μg/ml in 10 mM Acetate, pH 4.25 (Carterra, Salt Lake City, Utah), at 300 μl/well. A HC200M sensor chip (Carterra) was activated using the single channel flow cell with a 7-minute injection of a 1:1:1 mixture of 100 mM MES pH 5.5, 100 mM sulfo-NHS, 400 mM EDC (all reconstituted in MES pH 5.5; 100 μl of each mixed in vial immediately before running assay). After switching to the multi-channel array flow cell, the antibodies were injected over the activated chip in a 96-spot array for 15 minutes. The remaining unconjugated active groups on the chip were then blocked by injecting 1M Ethanolamine pH 8.5 (Carterra) for 7 minutes using the single channel flow cell.
(§2) Estimates of affinity were generated by injecting each analyte over the entire antibody array using the single channel flow cell. MerTK analytes were diluted to 33.3, 100, and 300 nM in running buffer, and injected in serial from lowest to highest concentration without regeneration. Two buffer blanks were run between each series (one species per series). Data were processed and analyzed using NextGenKIT high-throughput kinetics analysis software (Carterra). In these experiments, the anti-MerTK antibodies were human IgG1 isotype containing the Fc variant LALAPS.
(§3) The equilibrium dissociation constants (KD) were then calculated from the fitted association and dissociation rate constants (k-on and k-off) for anti-MerTK antibodies of the present disclosure.

[2] = target: T2, cyno MerTK extracellular domain (ECD), recombinant (cynomolgus monkey, UniProt Q12866 21-505 (human entry))
T2 construct: also called cynomolgus MerTK; not shown: polyHis tag or TEVS/Thrombin/murine IgG2a Fc tag
T2 chain: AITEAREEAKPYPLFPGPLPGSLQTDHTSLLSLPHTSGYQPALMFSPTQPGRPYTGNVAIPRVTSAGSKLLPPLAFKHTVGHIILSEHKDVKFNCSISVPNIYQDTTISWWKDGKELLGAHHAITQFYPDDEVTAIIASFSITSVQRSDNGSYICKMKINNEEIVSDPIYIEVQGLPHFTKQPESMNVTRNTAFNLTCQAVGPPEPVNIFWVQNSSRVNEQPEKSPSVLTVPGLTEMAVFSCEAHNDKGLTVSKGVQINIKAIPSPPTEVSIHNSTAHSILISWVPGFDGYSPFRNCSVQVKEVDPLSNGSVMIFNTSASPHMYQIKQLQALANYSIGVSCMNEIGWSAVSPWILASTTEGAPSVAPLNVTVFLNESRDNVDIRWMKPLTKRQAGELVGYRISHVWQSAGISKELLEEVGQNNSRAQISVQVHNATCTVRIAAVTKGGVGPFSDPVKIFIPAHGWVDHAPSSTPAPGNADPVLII
Method: as §1, §2, §3

[3] = target: T3, murine MerTK extracellular domain (ECD), recombinant (mouse, UniProt Q60805 19-497)
T3 construct: also called moMerTK; mouse MerTK; not shown: polyHis tag or TEVS/Thrombin/murine IgG2a Fc tag
T3 sequence: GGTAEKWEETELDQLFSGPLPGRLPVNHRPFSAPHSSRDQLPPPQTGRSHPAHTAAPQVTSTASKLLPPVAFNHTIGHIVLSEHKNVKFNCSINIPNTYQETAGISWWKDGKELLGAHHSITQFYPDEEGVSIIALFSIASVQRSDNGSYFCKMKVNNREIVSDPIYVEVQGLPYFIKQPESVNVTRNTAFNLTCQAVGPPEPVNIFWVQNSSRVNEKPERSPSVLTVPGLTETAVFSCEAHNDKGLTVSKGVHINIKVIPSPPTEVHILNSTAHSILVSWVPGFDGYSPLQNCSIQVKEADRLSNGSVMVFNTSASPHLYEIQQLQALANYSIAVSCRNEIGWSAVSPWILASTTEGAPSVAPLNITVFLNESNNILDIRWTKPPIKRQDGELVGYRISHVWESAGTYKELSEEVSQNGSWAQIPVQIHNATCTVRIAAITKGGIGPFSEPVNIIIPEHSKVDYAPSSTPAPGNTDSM
Method: as §1, §2, §3

Row | Binder | Kd [1] | Kd [2] | binding result [3] | Kd [3]
1 | B1 | 7.4 nM | 8.4 nM | no binding (tested: 300 nM) | –
2 | B2 | 8.6 nM | 8.8 nM | – | 205 nM
3 | B3 | 9.6 nM | 9.9 nM | – | 170 nM
4 | B4 | 4.5 nM | 4.2 nM | – | 116 nM
5 | B5 | 2.1 nM | 2.4 nM | – | 59 nM
6 | B6 | 4.7 nM | 4.9 nM | – | 140 nM
7 | B7 | 20 nM | 18 nM | – | 225 nM
8 | B8 | 28 nM | 26 nM | – | 140 nM
9 | B9 | 78 nM | 78 nM | – | 800 nM
10 | B10 | 41 nM | 41 nM | – | 465 nM
11 | B11 | 41 nM | 38 nM | – | 150 nM
12 | B12 | 11 nM | 10.1 nM | – | 115 nM
13 | B13 | 8.6 nM | 7.9 nM | – | 230 nM
